This test deals with T1, mE-ERH, fusion protein comprising the EGF-like domains of MSP1-19, MSP8 and MSP4 (Plasmodium falciparum, 3D7 assumed from …, UniProt Q7KWJ2).
T1 construct: source: Nicotiana benthamiana leaves (agroinfiltration, ER-retained), purified
Briefly: SPR. Conditions: both partners purified.

B1: recombinant 2.44IgG1 (chimeric mouse-human IgG1:kappa1 mAb) (antibody, V domains shown)
VH: DVQLQESGPGLVKPSQSLSLTCTVTGYSITSDFAWNWIRQFPGNRLEWMGYMGYTGSTSYNPSLRGRISITRDTSKNQFFLQLNSVTTEDTATYYCARGDYYGSRGYFDVWGAGTTVTVSS
VL: EIVLTQSPALMAASPGEKVTITCSVSSSIRSSNLHWYQQKSDTSPKPWIYGTSNLASGVPVRFSGSGSGTSYSLTISTMEAEDAATYYCQQWSSYPFTFGSGTKLEIK
notes: also called recombinant mAb; recombinant antibody
The Kd is the concentration at which binding is half-saturated. A higher Kd goes with a looser complex. A word on the koff: it is the rate constant with which the complex falls apart. Lower therefore signals slow dissociation. In general, kon refers to the second-order rate constant of association. Read a high kon as faster complex formation. For B1, the dissociation constant (Kd) was determined as 10.2 nM, the off-rate (koff) worked out at 0.000926 s⁻¹ and the association rate constant (kon) came out at 90400 M⁻¹ s⁻¹.

(Values after paper PMC4323031 (Malaria Journal, 2015).)
